Test results reported in PMC11478330, “Sandwich-Type Electrochemical Aptasensor with Supramolecular Architecture for Prostate-Specific Antigen”.

Target: prostate-specific antigen (PSA) (UniProt P07288 25-261)
Assay: electrochemical impedance spectroscopy; Apt-ADA on CD-AuNFs/rGO/SPCE; charge transfer resistance rises with PSA; PBS (detection limit measurement); binding buffer details, pH and temperature not given in the material
Details: protein: commercial; hairpin

prostate-specific antigen (PSA), sequence (P07288 25-261): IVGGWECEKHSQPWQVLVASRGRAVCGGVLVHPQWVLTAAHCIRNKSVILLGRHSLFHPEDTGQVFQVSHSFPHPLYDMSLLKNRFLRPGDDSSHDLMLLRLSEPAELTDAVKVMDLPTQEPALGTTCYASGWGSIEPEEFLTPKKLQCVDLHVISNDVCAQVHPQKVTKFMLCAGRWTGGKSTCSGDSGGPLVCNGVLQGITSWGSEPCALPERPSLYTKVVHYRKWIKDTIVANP

TTTTTAATTAAAGCTCGCCATCAAATAGCTTT (structured_DNA, 5' amino-C6 coupled to 1-adamantanecarboxylic acid) [anti-PSA aptamer-adamantane conjugate (Apt-ADA)]
binding result: binds
